T1: 人CD138 (human, UniProt P18827 23-310)
T1 construct: whole, on cells; also called syndecan-1; CD138靶抗原
T1 sequence (looked up): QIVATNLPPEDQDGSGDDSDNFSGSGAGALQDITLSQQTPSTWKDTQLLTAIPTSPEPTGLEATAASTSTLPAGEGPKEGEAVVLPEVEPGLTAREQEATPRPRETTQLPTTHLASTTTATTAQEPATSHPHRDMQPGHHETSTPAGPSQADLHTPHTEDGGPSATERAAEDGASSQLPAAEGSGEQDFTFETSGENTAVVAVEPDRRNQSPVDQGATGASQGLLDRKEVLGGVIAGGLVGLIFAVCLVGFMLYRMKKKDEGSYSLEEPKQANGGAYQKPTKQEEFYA

B1: 鼠抗人CD138[ZXCloneHCD138-02]抗体 (antibody, mouse IgG1, kappa, V domains shown)
VH: QVQLQQPGSVLVRPGASVKLSCKTSGYTFTSSWMHWAKQRPGQGLEWIGEIHPNGGNTYYNEKFKGKATLSVDTSSSTAYVDLSSLTSEDSAVYFCATPHYWGQGTTLTVSS
VL: DVVMTQTPLSLPVSLGDQASISCRCRQSLVHSNGNTYLQWYLQKPGQSPILLIYRVSNRFSGVPDRFSGSGSGTDFTLKISRVEAEDLGVYFCSQSTHVPHTFGAGTKLELKR
B2: 自制鼠抗人CD138[ZXCloneHCD138-02]-APC (antibody, mouse IgG1, kappa, V domains shown)
VH: B1 VH
VL: B1 VL
modifications: APC-labelled (site and chain not stated)

Columns and labels:
人CD138 [1] = molecular target: T1, 人CD138; test: flow cytometry titration of antibody dilutions (from 1 mg/mL) on cultured activated human cells, goat anti-mouse IgG-PE detection
人CD138 [2] = molecular target: T1, 人CD138; test: flow cytometry, APC-labelled antibody on cultured activated cells

Row | Binder | 亲和力(kd) (人CD138 [1]) | binding result (人CD138 [2])
1 | B1 | 25.2 | –
2 | B2 | – | binds

Reference: patent CN118290581A (ZHEJIANG ZHENGXI BIOTECHNOLOGY CO LTD, dated 2024)
